Assay results published in PMC10927535.

T1: LSH1-DBD M1-L166 (Arabidopsis thaliana, UniProt Q6NNI3 1-166)
T1 sequence: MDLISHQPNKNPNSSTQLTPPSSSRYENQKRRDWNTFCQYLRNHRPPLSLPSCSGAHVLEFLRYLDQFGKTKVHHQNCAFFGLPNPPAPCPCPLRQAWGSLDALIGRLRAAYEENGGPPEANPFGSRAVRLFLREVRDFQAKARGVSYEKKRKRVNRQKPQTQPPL

T2: LSH3-DBD S45-S190 (Arabidopsis thaliana, UniProt O82268 45-190)
T2 sequence: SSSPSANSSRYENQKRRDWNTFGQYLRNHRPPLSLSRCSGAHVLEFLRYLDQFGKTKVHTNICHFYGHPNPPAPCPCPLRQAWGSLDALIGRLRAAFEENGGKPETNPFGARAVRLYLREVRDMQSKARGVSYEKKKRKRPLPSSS

B1: WT ALOG motif probe (perfect motif) (dsDNA)
DNA 1: GCGTAGTTTACTGTTGACGTAG
DNA 2: CTACGTCAACAGTAAACTACG
B2: LSH perfect motif 17 bp (oPR799/oPR800) (dsDNA)
DNA 1: TAGTTTACTGTTGACGT
DNA 2: ACGTCAACAGTAAACTA

Columns and labels:
LSH1-DBD M1-L166 = target: T1, LSH1-DBD M1-L166; experiment: EMSA
LSH3-DBD S45-S190 [1] = target: T2, LSH3-DBD S45-S190; experiment: EMSA
LSH3-DBD S45-S190 [2] = target: T2, LSH3-DBD S45-S190; experiment: crystal structure

Binder | Kd (LSH1-DBD M1-L166) [nM] | Kd (LSH3-DBD S45-S190 [1]) [nM] | binding result (LSH3-DBD S45-S190 [2])
B1 | < 50 | 28 | 
B2 |  |  | binds
